Earlier results, collected in PMC3042137.

Target: JIP1 (L-pepJIP1) (Homo sapiens) (UniProt Q9UQF2)
Assay: ITC

UniProt Q9UQF2, sequence (Q9UQF2 whole entry): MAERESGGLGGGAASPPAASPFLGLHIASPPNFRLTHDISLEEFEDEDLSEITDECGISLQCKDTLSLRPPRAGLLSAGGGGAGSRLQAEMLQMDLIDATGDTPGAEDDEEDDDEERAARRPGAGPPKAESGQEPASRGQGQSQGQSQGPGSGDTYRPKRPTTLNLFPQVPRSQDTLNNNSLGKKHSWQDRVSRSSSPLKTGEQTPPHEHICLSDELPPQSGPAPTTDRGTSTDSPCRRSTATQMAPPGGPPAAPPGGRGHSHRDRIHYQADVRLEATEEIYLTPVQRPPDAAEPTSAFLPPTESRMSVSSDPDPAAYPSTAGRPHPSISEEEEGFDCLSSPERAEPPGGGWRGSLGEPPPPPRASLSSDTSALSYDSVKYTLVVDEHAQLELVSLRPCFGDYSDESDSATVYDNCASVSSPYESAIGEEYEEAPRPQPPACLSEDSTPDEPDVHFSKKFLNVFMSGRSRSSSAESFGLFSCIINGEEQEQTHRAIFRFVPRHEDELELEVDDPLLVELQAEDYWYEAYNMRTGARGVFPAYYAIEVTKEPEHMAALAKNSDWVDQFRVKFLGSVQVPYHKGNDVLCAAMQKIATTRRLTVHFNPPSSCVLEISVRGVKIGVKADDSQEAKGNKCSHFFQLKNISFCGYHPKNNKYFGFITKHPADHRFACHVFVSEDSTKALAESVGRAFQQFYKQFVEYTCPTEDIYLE

JNK1 (from UniProt P45983)
Kd: 420 nM
